Here are results for five molecules from US20140271602, “NUCLEOTIDE-SPECIFIC RECOGNITION SEQUENCES FOR DESIGNER TAL EFFECTORS” (THE BROAD INSTITUTE INC., published 2014).

The test system of series [1] is AAVS1 left TALEN (Xanthomonas (engineered)). Put plainly: cell_activity. Conditions: Surveyor assay, with right TALEN, 293FT.
Series [2] concerns NH-TALE (RVD screening) (Xanthomonas (engineered)). Put plainly: cell_activity. The conditions noted are these: luciferase reporter. A general note: In a reporter assay the amount or activity of a reporter protein is the signal.
For series [3], the system named is NN-TALE (RVD screening) (Xanthomonas (engineered)). Put plainly: cell_activity. The conditions noted are these: luciferase reporter.
The subject of series [4] is SOX2 TALE-TF (Xanthomonas (engineered)). Put plainly: cell_activity. The conditions noted are these: endogenous SOX2.
Series [5] relates to AAVS1 right TALEN (Xanthomonas (engineered)). Put plainly: cell_activity. Conditions: Surveyor assay, with left TALEN, 293FT.
The target of series [6] is T1, TALE2-NN (CACNA1C site 2 activator) (Xanthomonas (engineered), UniProt P14727 SEQ:1-983).
T1 chain: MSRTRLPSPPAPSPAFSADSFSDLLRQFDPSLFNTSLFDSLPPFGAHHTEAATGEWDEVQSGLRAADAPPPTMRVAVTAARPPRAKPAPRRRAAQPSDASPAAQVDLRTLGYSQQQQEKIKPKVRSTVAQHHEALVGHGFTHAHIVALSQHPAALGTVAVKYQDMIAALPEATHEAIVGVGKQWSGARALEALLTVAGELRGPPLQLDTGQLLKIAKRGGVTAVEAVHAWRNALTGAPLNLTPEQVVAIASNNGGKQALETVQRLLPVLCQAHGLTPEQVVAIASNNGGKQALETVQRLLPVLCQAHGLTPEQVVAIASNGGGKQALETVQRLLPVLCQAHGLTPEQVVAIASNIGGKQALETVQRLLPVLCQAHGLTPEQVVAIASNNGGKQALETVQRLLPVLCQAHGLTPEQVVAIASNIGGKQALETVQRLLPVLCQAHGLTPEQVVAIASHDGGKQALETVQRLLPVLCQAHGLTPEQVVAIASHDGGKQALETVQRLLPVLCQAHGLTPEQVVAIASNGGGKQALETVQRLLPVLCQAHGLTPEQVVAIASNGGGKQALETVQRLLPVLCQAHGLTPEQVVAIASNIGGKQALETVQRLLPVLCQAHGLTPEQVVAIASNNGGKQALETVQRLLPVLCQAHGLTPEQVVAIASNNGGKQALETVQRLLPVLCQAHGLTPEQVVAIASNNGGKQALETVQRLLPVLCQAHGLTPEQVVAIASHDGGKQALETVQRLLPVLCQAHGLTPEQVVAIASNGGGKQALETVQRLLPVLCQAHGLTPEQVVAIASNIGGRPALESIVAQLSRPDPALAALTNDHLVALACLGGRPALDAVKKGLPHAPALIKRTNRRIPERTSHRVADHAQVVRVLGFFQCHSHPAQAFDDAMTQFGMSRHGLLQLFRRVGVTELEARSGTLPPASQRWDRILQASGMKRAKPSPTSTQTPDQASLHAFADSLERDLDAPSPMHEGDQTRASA
The experiment in a line: cell_activity; HEK 293FT, endogenous CACNA1C mRNA. The conditions noted are these: tags: VP64, 2A-GFP. Here is the method:
Changes in mRNA are measured using qRT-PCR as described previously. VP64, VP64 transcription activation domain. All results are collected from three independent experiments in HEK 293FT cells. Error bars indicate s.e.m.; n=3. FIG. 19(b) discloses SEQ ID NOS 63 and 62, respectively, in order of appearance.
Using qRT-PCR, the performance of NN, NK, NH, and HN for targeting endogenous genomic sequences was further compared. The ability of NN-, NK-, NH-, and HN-TALEs to activate CACNA1C transcription by targeting the two endogenous target sites was tested (FIG. 19b). […] Both TALE 1-NH and TALE2-NH were able to achieve similar levels of transcriptional activation as TALE1-NN and TALE2-NN (˜5 and ˜3 folds of activation for targets 1 and 2, respectively) and twice more than TALE-NK and TALE2-NK (FIG. 19b). […] On the other hand, based on all the results from specificity and endogenous activity tests, the RVD NH seems to be a more suitable substitute for NN than NK when higher targeting specificity is desired, as it also provides higher levels of biological activity. Further testing using additional endogenous genomic targets helps validate the broad utility of NH as a highly specific G-targeting RVD.
For the endogenous gene transcriptional level assay to test the biological activities of TALE activators and TALE repressors, HEK 293FT cells were seeded into 24-well plates. […]

For series [7], the target named is T2, TALE2-NH (CACNA1C site 2 activator) (Xanthomonas (engineered), UniProt P14727 SEQ:1-983).
T2 chain: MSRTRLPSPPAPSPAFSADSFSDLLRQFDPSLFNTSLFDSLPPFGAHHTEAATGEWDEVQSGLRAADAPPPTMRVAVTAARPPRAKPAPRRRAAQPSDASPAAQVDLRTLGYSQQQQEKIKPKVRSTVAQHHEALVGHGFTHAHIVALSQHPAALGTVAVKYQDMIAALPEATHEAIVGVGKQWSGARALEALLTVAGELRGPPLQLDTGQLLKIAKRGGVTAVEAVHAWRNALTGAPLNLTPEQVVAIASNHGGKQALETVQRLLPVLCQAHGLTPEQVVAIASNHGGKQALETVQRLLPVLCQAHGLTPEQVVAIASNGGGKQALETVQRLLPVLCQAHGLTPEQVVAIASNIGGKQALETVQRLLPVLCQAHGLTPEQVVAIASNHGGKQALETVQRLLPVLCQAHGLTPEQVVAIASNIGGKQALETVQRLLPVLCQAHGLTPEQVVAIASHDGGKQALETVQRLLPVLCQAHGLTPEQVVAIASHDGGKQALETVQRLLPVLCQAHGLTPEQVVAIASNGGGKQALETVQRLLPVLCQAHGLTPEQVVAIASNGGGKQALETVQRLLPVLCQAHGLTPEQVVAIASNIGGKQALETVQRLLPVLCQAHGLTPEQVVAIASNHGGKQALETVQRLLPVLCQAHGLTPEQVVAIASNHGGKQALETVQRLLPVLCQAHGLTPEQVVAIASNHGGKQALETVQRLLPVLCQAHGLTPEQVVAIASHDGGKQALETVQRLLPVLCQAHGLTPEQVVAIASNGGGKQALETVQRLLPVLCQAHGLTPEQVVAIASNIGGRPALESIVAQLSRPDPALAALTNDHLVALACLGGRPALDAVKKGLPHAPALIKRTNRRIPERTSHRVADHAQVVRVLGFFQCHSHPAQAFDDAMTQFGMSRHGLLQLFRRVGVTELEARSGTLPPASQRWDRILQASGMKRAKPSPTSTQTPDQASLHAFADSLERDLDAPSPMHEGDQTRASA
The experiment in a line: cell_activity; HEK 293FT, endogenous mRNA; reporter 2.7x that of NK. The conditions noted are these: tags: VP64, 2A-GFP.

“TGTCCCCTCCACCCCACA (double strand) [AAVS1 left TALEN site]” displayed an activity (% cleavage (pair)) in series [1] of under 3.6.
Take “TTCTTGGTTATAAC (double strand) [RVD screen G-reporter]”: the binding signal (G- to A-reporter activation ratio) was determined as 16.4 in series [2] and 3.5 in series [3].
SOX2 TALE-TF site returned an activity (fold activation) in series [4] of under 5.
Consider “GTCCTAACCACTGTCTTT (double strand) [AAVS1 right TALEN site]”, for which, in series [5], the activity (% cleavage (pair)) is under 3.6.

B1: CACNA1C site 2 (dsDNA)
DNA 1: TGGTAGACCTTAGGGCTA
DNA 2: TAGCCCTAAGGTCTACCA
Take B1: the activity in series [6] and in series [7] was about 3 fold activation each time.
